Article doi:10.64898/2025.12.16.694593 (bioRxiv, 2025)

Key:
[1] = target: T1, Mtb Ku (from Ku-HIS, TEV-cleaved) (Mycobacterium tuberculosis, UniProt A5U0X7 1-273); assay: EMSA
T1 sequence: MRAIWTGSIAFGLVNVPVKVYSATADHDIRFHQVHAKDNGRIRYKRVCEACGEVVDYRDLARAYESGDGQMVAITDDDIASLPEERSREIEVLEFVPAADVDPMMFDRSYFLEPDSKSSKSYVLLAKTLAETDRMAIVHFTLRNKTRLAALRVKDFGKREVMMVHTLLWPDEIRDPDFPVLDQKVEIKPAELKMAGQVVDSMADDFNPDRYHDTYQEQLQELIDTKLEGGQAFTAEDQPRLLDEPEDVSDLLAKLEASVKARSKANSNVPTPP

[2] = target: T2, Mtb Ku released from RFP-Ku by TEV (Mycobacterium tuberculosis, UniProt A5U0X7 1-273); assay: EMSA
T2 sequence: T1 sequence

B1: 50 bp blunt end (dsDNA)
DNA 1: GCTAAGTCATCGTCTGTCGATCGATCTCTCGAGTAGTACAGGTCTAGAGG
DNA 2: CCTCTAGACCTGTACTACTCGAGAGATCGATCGACAGACGATGACTTAGC
binding result [1]: binds

B2: 32/20dT DNA (called 30 bp/20 dT in legends) (dsDNA)
DNA 1: GCCCTGCTGCCGACCAACGATGGTTACATTCC
DNA 2: GGAATGTAACCATCGTTGGTCGGCAGCAGGGCTTTTTTTTTTTTTTTTTTTT
binding result [1]: binds
binding result [2]: binds
